{"source": "paper PMC11063343", "target": "SARS-CoV-2 S1 spike domain", "experiment": "SPR", "details": "2.5 µM SARS-CoV-2-S1; parent: est. 450; read off a plot"}
{"substance": "cellugyrin N-Term peptide Y6A; K10A; F15A", "values": [{"measurement": "response", "value": 45, "unit": "RU"}]}
